Data taken from publication PMC6602974 (Nature Communications, 2019).

Target: CH505 transmitted founder gp120 (HIV-1 CH505 transmitted/founder, UniProt M4M3Q1, strain)
Test: SPR
Details: both partners purified

Row | Binder | binding result
1 | DH753 monoclonal antibody (IgG1) (antibody, V domains shown, copies: 2 + 2) VH: EVHLVESGGGLVQPGGSLRLSCEVSGLTFSNSWMSWVRQAPGKGLEWVGFIKTKADGGTAAYAESVKGRFTISRDDSKNTVFLQMKSLKTEDTAVYYCQGAVVISHEYIEIWGQGALVTVSS VL: QSVLTQPPSASEAARKSVTISCSGGSSNIGDDSVSWYQQVPGTAPKLLIYYNDRRASGVSDRFSGSKSGTSASLAINGLQSEDEADYYCAAWDDSLSAYIFGSGTRLTVL | binds
2 | DH727.2 monoclonal antibody (IgG1) (antibody, V domains shown, copies: 2 + 2) VH: QVQLVQSGAEVKKPGASVKLSCKASGNTFSIYGISWVRQAPGQGLEWMGGIIPPAGLTNYVQRFQGRVTITADTSTTTVYMELSSLTSEDTAVYYCAIRIGRGFDYWGQGVLVTVSS VL: DIVMTQSPLSLPVTPGETASISCRSSQSLLDSEDGNTYLEWYLQKPGQSPQALIYEASNRASGVPDRFSGSGSDTDFTLKISRVEAEDVGIYYCMQTIEYPFTFGPGTKVDIK | binds
